From patent publication US20220403023A1

Columns and labels:
[1] = molecular target: human CD47 ECD protein (human) (UniProt Q08722); assay: competition ELISA against human SIRPα-His (1 µg/mL) on plate-coated human CD47 ECD; ligand only 1.438
[2] = molecular target: cynomolgus monkey CD47 on engineered CHO-K1 cells (cynomolgus monkey); assay: FACS on CHO-K1 cells expressing cynomolgus CD47 (CHOK1-cynoCD47), goat anti-human IgG-Fc PE; blank (Neg) 47.6
[3] = molecular target: human CD47 on engineered CHO-K1 cells (human) (UniProt Q08722); assay: competition FACS against human SIRPα-His (1 µg/mL) on CHOK1-huCD47 cells; ligand only 1086
[4] = molecular target: human CD47 ECD protein (human) (UniProt Q08722); assay: ELISA on plate-coated human CD47 ECD (1 µg/mL), goat anti-human IgG-Fc-HRP, OD450; blank (Neg) 0.102
[5] = molecular target: CD47 on human red blood cells (human) (UniProt Q08722); assay: FACS on human red blood cells, goat anti-human IgG-Fc PE; blank (Neg) 232
[6] = molecular target: human CD47 on engineered CHO-K1 cells (human) (UniProt Q08722); assay: FACS on CHO-K1 cells expressing human CD47 (CHOK1-huCD47), goat anti-human IgG-Fc PE; blank (Neg) 34.8
[7] = molecular target: CD47 on human origin tumor cells (human) (UniProt Q08722); assay: FACS on CaLu-6 cells
[8] = molecular target: CD47 on human origin tumor cells (human) (UniProt Q08722); assay: FACS on Ramos cells
[9] = molecular target: CD47 on human origin tumor cells (human) (UniProt Q08722); assay: FACS on A375 cells
[10] = molecular target: CD47 on human origin tumor cells (human) (UniProt Q08722); assay: FACS on HepG2 cells
[11] = molecular target: CD47 on human origin tumor cells (human) (UniProt Q08722); assay: FACS on FaOb cells
[12] = molecular target: CD47 on human origin tumor cells (human) (UniProt Q08722); assay: FACS on A431 cells
[13] = molecular target: CD47 on human origin tumor cells (human) (UniProt Q08722); assay: FACS on Hut78 cells
[14] = molecular target: CD47 on human origin tumor cells (human) (UniProt Q08722); assay: FACS on A204 cells
[15] = molecular target: CD47 on human origin tumor cells (human) (UniProt Q08722); assay: FACS on 293F cells
[16] = molecular target: CD47 on human origin tumor cells (human) (UniProt Q08722); assay: FACS on BxPC-3 cells
[17] = molecular target: CD47 on human origin tumor cells (human) (UniProt Q08722); assay: FACS on BT474 cells
[18] = molecular target: CD40.his; assay: non-specific binding ELISA, protein coated 1 µg/mL
CD40.his, sequence (P25942 21-193): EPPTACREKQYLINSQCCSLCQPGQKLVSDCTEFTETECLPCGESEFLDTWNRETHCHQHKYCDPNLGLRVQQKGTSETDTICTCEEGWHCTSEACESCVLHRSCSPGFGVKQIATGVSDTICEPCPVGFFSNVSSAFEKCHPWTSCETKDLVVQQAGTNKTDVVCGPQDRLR

[19] = molecular target: CD22.his; assay: non-specific binding ELISA, protein coated 1 µg/mL
[20] = molecular target: CD147.his; assay: non-specific binding ELISA, protein coated 1 µg/mL
[21] = molecular target: FGFR.his; assay: non-specific binding ELISA, protein coated 1 µg/mL
[22] = molecular target: Factor Eight; assay: non-specific binding ELISA, protein coated 1 µg/mL
[23] = molecular target: VEGF.his; assay: non-specific binding ELISA, protein coated 1 µg/mL
[24] = molecular target: CD3.his; assay: non-specific binding ELISA, protein coated 1 µg/mL
[25] = molecular target: VEGFR2.his; assay: non-specific binding ELISA, protein coated 1 µg/mL
VEGFR2.his, sequence (P35968 20-764): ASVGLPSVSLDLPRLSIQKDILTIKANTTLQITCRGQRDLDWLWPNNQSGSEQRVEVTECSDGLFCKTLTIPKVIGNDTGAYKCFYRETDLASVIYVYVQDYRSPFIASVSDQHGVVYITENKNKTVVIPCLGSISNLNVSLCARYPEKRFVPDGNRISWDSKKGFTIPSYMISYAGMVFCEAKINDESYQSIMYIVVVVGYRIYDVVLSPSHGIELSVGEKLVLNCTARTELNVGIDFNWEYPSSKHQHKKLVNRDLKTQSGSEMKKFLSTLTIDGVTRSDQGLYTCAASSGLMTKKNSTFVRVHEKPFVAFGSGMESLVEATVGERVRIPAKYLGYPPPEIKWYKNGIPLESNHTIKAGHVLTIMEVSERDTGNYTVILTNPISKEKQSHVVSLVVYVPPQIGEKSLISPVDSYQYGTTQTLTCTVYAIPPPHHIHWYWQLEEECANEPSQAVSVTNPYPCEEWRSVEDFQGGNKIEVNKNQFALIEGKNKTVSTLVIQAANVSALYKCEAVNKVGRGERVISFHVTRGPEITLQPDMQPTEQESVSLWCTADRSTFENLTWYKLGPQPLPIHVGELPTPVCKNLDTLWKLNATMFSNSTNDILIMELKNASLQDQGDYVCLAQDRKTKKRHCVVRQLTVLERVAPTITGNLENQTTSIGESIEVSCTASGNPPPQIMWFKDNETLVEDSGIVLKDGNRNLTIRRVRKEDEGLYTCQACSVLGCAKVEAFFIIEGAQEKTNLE

[26] = molecular target: HER3.his (Homo sapiens (Human)) (UniProt P21860); assay: non-specific binding ELISA, protein coated 1 µg/mL
[27] = molecular target: 4-1B8.his; assay: non-specific binding ELISA, protein coated 1 µg/mL
4-1B8.his, sequence (Q07011 24-186): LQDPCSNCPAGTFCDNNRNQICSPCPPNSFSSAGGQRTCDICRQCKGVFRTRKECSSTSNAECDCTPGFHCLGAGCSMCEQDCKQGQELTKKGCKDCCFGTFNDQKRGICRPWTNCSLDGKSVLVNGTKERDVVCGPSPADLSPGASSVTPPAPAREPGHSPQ

[28] = molecular target: PD-1.his (Homo sapiens (Human)) (UniProt Q15116); assay: non-specific binding ELISA, protein coated 1 µg/mL
PD-1.his (Homo sapiens (Human)), sequence (Q15116 25-170 limits assumed): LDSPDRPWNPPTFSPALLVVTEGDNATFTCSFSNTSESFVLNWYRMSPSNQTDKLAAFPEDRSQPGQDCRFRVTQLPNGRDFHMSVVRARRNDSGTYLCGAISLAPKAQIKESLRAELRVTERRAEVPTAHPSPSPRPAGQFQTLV

[29] = molecular target: OX40.his; assay: non-specific binding ELISA, protein coated 1 µg/mL
OX40.his, sequence (P43489 29-214): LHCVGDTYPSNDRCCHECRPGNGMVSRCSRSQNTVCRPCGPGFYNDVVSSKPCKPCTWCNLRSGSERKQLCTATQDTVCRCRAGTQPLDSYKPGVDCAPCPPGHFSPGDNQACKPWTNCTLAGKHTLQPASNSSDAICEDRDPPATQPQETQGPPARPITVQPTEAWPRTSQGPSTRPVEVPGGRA

[30] = molecular target: CTLA4.his; assay: non-specific binding ELISA, protein coated 1 µg/mL
CTLA4.his, sequence (P16410 36-161): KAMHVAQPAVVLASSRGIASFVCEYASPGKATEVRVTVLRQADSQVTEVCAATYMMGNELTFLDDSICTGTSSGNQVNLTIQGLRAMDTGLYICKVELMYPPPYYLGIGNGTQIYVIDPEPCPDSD

[31] = molecular target: HSA. (UniProt P02768); assay: non-specific binding ELISA, protein coated 1 µg/mL
[32] = molecular target: CD47 on human origin tumor cells (human) (UniProt Q08722); assay: FACS on MDA-MB-453 cells
[33] = molecular target: CD47 on human origin tumor cells (human) (UniProt Q08722); assay: FACS on Jurkat.268 cells
[34] = molecular target: CD47 on human origin tumor cells (human) (UniProt Q08722); assay: FACS on HT29 cells

MFI [7] | MFI [8] | MFI [9] | MFI [10] | MFI [11] | MFI [12] | MFI [13] | MFI [14] | MFI [15] | MFI [16] | MFI [17] | ELISA-OD450 [18] | ELISA-OD450 [19] | ELISA-OD450 [20] | ELISA-OD450 [21] | ELISA-OD450 [22] | ELISA-OD450 [23] | ELISA-OD450 [24] | ELISA-OD450 [25] | ELISA-OD450 [26] | Substance | also measured
– | – | – | – | – | – | – | – | – | – | – | – | – | – | – | – | – | – | – | – | IgG4 isotype control (antibody) | Max Inhibit% [1]: 21.2%; Min OD [1]: 1.13 OD450; Max MFI [2]: 97.9 MFI; Max Inhibit% [3]: 12.2%; Min MFI [3]: 953 MFI; Max OD [4]: 0.123 OD450; Max MFI [5]: 238 MFI; Max MFI [6]: 66 MFI
88.4 | 68.4 | 49.5 | 27.3 | 429 | 251 | 50.2 | 42.4 | 28.7 | 110 | 19.1 | 0.205 | 0.0467 | 0.0443 | 0.137 | 0.0481 | 0.0463 | 0.0518 | 0.0441 | 0.0445 | hIgG4L Isotype control (antibody) | ELISA-OD450 [27]: 0.0463; ELISA-OD450 [28]: 0.227; ELISA-OD450 [29]: 0.051; ELISA-OD450 [30]: 0.0571; ELISA-OD450 [31]: 0.335; MFI [32]: 28.3; MFI [33]: 64.3; MFI [34]: 45.7
23.3 | 74.4 | 22.8 | 32.2 | 36.2 | 39.5 | 49.7 | 34.7 | 56.4 | 42.9 | 20.8 | 0.213 | 0.0451 | 0.0424 | 0.133 | 0.181 | 0.0452 | 0.0479 | 0.0432 | 0.044 | hIgG4K Isotype control (antibody) | ELISA-OD450 [27]: 0.0463; ELISA-OD450 [28]: 3.71; ELISA-OD450 [29]: 0.0508; ELISA-OD450 [30]: 0.0562; ELISA-OD450 [31]: 0.322; MFI [32]: 32.2; MFI [33]: 36.9; MFI [34]: 44.3
